# Reference: patent US10342879B2, “Carrier nanoparticles and related compositions, methods and systems” (California Institute of Technology, priority 2008, dated 2019)
# Assay: Effective diameter by dynamic light scattering in double distilled water
# Type: physicochemical
# Conditions: DLS
# Description: 3 successive runs of 1 min each were subsequently recorded and averaged. […] 10 successive automated runs at target residuals of 0.012 were then performed and results averaged (FIG. 14).
substance,measurement,value
Poly(Mucic Acid-DiCys-PEG)-CPT conjugate,share of the total particle population in the predominant distribution,60%
